One may read the Ki as a measure of affinity in units of concentration, obtained from inhibition or displacement. The low end stands for higher affinity, the high end for lower affinity.

Non-standard residues stand in square brackets, D forms with d. No end group written: not given here.

Our source for the Ki values is article PMC4737579.

The test deals with soluble human furin (human) (UniProt P09958). As to the kind of experiment: enzyme inhibition.

Consider [dR][dR][dR][dR][dR][dR][dR][dR][dR] [nona-D-arginine], for which the Ki came out at 140 nM. This counts as sub-micromolar.
